From the nanobody polyreactivity screen of Harvey et al. (2022)

Assay: yeast display, Sf9 membrane polyspecificity reagent, FACS + sequencing; frameworks hold sequencing errors
Outline: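 Sorting gates, low and high (top ~1%), were placed on anti-HA fluorescence to track expression and on streptavidin fluorescence to track reagent binding. A clone's polyreactivity label is taken from the gate it came out of. The reagent was 10% biotinylated, detergent-solubilized Sf9 membrane, applied for 1 hour at 4 °C to galactose-induced yeast display cells.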

| Sequence | polyreactivity (PSR sort gate) |
| --- | --- |
| QVQLVESGGGLVQAGGSLRLSCAASGFTFSYYAMGWYRQAPGKERELVAAITFTGGSTYYADSVKGRFTISRDNAKNTVYLQMNSLKPEDTAVYYCAADWYYGDEYEYWGQGTQVTVSS | high polyreactivity |
| QVQLVESGGGLVQAGGSLRLSCDASGSILVAYAIGWYRQAPGKEREFVAAISSVGNTYYADSVKGRFTISRDNAKNTVYLQMNSLKPEDTAVYYCNAVYRVWYAEWSTVGSPHDYWGQGTQVTVSS | low polyreactivity |
| QVQLVESGGGLVQAGGSLRLSCAASGFTFYTYVMGWYIQAPGKERELVAAITSGVYTNYADSVKGRFTISRDNAKNTVDLQMKSLKPEDTAVYYCNKDVRQAYRWYDSWGQDTQVTVSS | low polyreactivity |
| QVQLVESGGGLVQAGGSLRLSCAASGRTFGPYAMGWYRQAPGKERELVAAISRSGGRTYYADSVKGRFSISRDNAKNTVYLQMNSLKPEETAVYYCNALYLSTRSGDYWGQGSQVTVSS | high polyreactivity |
| QVQLVESGGGLVQAGGSLRLTCAASGSIFGGYGMGWYRQAPGKERELVAAITSGTSTYYADSVKGRFTISRDNAKNTVYLQMNSLKPEDTAVYYCAARPYPHSAYEGDYWGRGTQVTVSS | low polyreactivity |
| QVKLVESGGRLVQAGGSLRLSCAASGSIFYYYAMGWYRQAPVKERELVAAITNYADSVKGRFTISRDNAKNTVYLQMNSLKPEDTAVYYCAADWWRVEMDYWGQGTQVTVSS | low polyreactivity |
| QVQLVESGGGLVQAGGSLRLSCAASGRIFDVYAMGWYRQSPGKERELVAAISWSGSSTYYADSVKGRFTISRDTAKNTVYFQMNSLKPEDTAVYYCAADYPKTYTSKFNYWGQGTQVTVSS | high polyreactivity |
| QVQLVESGGGLVQAGGSLRLSCAASVITFVFYAMGWYRQAPGKEREFVAGITWRGGRTYYADSVKGRFTISRDNAKNTVYLQMNSLKPEDTAVYYCNARSVVLTGGDYWGQGTQVTVSS | high polyreactivity |
| QVQLVESGGGLVQAGGSLRLSCAASGRTLGGNAMGWYRQAPGKERELVAAITNSASTYADSVKGRFTISRDNAKNSVYLQMNSLKPEDTAVYYCNAPVPSDQHGDYWGQGTQVTVSS | low polyreactivity |
| QVQLVESGGGLVQAGGSLRLSCAASGRTFYYYALGWYRQAPGKERELVAVIRSSGDSTYYADSVKGRFTISRDNANNTVYLQMNSLKPEDTAVYYCNADPGEVLVGYDYWGQGTQVTVSS | low polyreactivity |
| QVQLVESGGGLVQAGGSLRLSCAASGRTISVYGMGWYRQAPGKERELVASITWRGGTTYYADSVKGRFTISRDNAKNTVYLQMNSLKPEDTAVYYCAAYWPYTTYRYRYDYWGQGTQVTVSS | high polyreactivity |
| QVQLVESGGGLVQAGGSLRLSCAASGSIFNVYAMGWYRQAPGKERELVAAISSSGARTYYADSVKGRFTISRDNAKNTVYLQMNSLKPEDTAVYYCAARSILIRSGGGYPSVWRNYWGQGTQVTVSS | high polyreactivity |
| QVQLVESGGGLVQAGGSLRLSCAASGSIFGQYAMGWYRQAPGKERELVAAITDTGDSTYYADSVMGRFTISRDNAKNTVYLQMNSLKPEDTAVYYCAADVYYAFGSMYYWGQGTQVTVSS | low polyreactivity |
| QVQLVESGGGLVQAGGSLRLSCAASGFIFYAYTMGWYRQAPGKERELVAAISRSGGRTYYADSVKGRFTISRDNAKNTVYLQMNSLKPEDTAVYYCAAEYRGVPRVVVDYDYWGQGTQVTVSS | high polyreactivity |
| QVQLVESGGGLVQAGGSLRLSCAASGFTFSRYAMGWYRQAPGKERELVAAISYSGGTTYYADSVKGRFTISRDNAKNTVYLQMNSLKPEDTAVYYCNARARGQLVGHYYYWGQGTQVTVSS | high polyreactivity |
| QVQLVESGGGLVQAGGSLRLSCAASGFIFKIYAMGWYRQAPGKERELVAAISSGDNTNYADSVKGRFTISRDNAKNTVYLQMNSLKPEDNAVYYCAALRYTYLGQLQWSRSGRYDYWGQGTQVTVSS | high polyreactivity |

| Sequence | polyreactivity (PSR sort gate) |
| --- | --- |
| QDQLVESGGGLVQAGGSLRLSCAASGRIFGYYTAMGWYRQTPAKEREMVASITKSGGSTYYSDSVKGRFTITRDNAKNTVYLQKNCLKPEDTAVYYCAAAFNRYGTTSYWYRHYYWGQGTQVTVSS | high polyreactivity |
| QVQLVESGGGLLQAGGSLPLSCPASGRIFYSYAMGWYRQAPGKERELVAGINWRGSNTYYADSVKGRFTISRDNAKNTVYFQMNSLKPEDTAVYYCSATYYQERRRGYWGQGSQVTVSS | high polyreactivity |
| QVQLVESGGGLVQAGGSLRLSCAASGRTFDLNGMGWYRQAPGKERELVAAITRGGSTNYADSVKGRFTISRDNAKNTVYLQMNSLKPEDTAVYYCAADSSFWYYDRYDYWGQGTQVTVSS | low polyreactivity |
| QVQLVESGGGLVQAGGILRLSCAASGFIFYHYAMGWYRQAPGKERELVASITSGGRTYYADSVKGRFTISRDNAKNTVSLQMNRLKPEDTAVYYCAAAYYYYSSPRFTTGMDYWGQGTQVTVSS | high polyreactivity |
| QVQLVESGGGLVQAGGSLRLSCAASGITFIYYTMGWYRQEPGKERELVAAISSRGSSTYYADSVKGRFTISRDNAKNTVYLQMNSLKPEDTAVYYCAAVQYRYGGMDYWGQGTQVTVSS | high polyreactivity |
| QVQLVESGGGLVQAGGSLRLSCAASGSIFTYNVMGWYRQAPGKERELVASISWSGGRTYYADSVKGRFTISRDYAKNTVYLQMNSLKPEDTAVYYCNNVRPPVYFPNRDYWGQGTQVNVSS | low polyreactivity |
| QVQLVESGGGLDQAGGSLRLSCAASGRTFAYYAIGWYRQAPGKERELVATITSYVGRTYYADSVKGRFTISRDNAKKSVYLQMNSLKPDDTAVYYSNARDWGRTRGGGYPWLYRYDYWGQGTQVTVSS | low polyreactivity |
| QVQLVESGGGLVQAGGSLRLSCAASGSTSTTYTMGWYRQAPGKERELVAAISYSGGSTYYADSVKGRFTISRDNAKHTVYLQMNSLKPEDTAVYYCAAQSFVGWREYESWGQGTQVTVSS | high polyreactivity |
| QVQLVESGGGLVQAGGSLRLSCAASGSTFVKNDMGWYRQAPGKERELVAANSGGSTNYADSVTGRFTISRDNAKNTVYLQMNSLKPEDTAVYYCNAAVITKYAGRGGRPTGRMYYWGQGTQVTVSS | low polyreactivity |
| QVQFVESGGGLVQAGGSLRLSCAASGSIFIYNAMGWYRQAPGTERELVAAISRGGTNTYYADSVKGRFTISRDNAKNTVYLQMNSLKPEDTAVYYCAARGGYIGSRNNYWGQGTQVTVSS | high polyreactivity |
| QVQLVESGGGLVQAGGSLRLSCAASGRTFTRYAMGWYRQAPGKERELVAAITSDGTTYYADSVKGRFTISRDNAKNTVYLQMNSLKPEDTAVYYCNAQYKFPDLGGYDYWGQGTQVTVSS | high polyreactivity |
| QVQLVESGGGLVQAGGSLRLSCAASGSTFIDYAMGWYRQAPGKERELVASITWSGGSTYYADSVKGRFTISRDNAKNTVYLQMNSLKPEDTAVYYCNADVNVGLEVRIVYEYDYWGQGTQVTVSS | low polyreactivity |
| QVQLVESGGGLVQAGGSLRLSCAASGFTFRYYVMGWYRQAPGKERELVAAITSGGSTNYADSVKGRFTISRDNAKNTVYLQMNSLKPEDTAVYYCYAAYRSYGRFDYWGQGTQVTVSS | low polyreactivity |
| QVQLVESGGGLVQAGGSLRLSCAASGSIFDVNAMGWYRQAPGKERELVAAITSSGGSTYYADSVKGRFTISRDNAKNTVYLQMNSLKPEDTAVYYCAAYSLYTMYWGQGTQVTVSS | low polyreactivity |
| QVQLVESGGGLVQAGGSLRLSCAASGRTFGSNAMGWYRQAPGKERELVAAISSSDSTNYADSVKGRFTISRDNAKNTVYLQMNSLKPEDTAVYYCNAGHPVRSPGYDYWGQGTQVTVSS | low polyreactivity |
